The values that follow are results of earlier work, collected in publication PMC5515885.

The target of this data set is Nup153 (Homo sapiens) (UniProt P49790).
UniProt P49790, sequence (P49790 2-1475): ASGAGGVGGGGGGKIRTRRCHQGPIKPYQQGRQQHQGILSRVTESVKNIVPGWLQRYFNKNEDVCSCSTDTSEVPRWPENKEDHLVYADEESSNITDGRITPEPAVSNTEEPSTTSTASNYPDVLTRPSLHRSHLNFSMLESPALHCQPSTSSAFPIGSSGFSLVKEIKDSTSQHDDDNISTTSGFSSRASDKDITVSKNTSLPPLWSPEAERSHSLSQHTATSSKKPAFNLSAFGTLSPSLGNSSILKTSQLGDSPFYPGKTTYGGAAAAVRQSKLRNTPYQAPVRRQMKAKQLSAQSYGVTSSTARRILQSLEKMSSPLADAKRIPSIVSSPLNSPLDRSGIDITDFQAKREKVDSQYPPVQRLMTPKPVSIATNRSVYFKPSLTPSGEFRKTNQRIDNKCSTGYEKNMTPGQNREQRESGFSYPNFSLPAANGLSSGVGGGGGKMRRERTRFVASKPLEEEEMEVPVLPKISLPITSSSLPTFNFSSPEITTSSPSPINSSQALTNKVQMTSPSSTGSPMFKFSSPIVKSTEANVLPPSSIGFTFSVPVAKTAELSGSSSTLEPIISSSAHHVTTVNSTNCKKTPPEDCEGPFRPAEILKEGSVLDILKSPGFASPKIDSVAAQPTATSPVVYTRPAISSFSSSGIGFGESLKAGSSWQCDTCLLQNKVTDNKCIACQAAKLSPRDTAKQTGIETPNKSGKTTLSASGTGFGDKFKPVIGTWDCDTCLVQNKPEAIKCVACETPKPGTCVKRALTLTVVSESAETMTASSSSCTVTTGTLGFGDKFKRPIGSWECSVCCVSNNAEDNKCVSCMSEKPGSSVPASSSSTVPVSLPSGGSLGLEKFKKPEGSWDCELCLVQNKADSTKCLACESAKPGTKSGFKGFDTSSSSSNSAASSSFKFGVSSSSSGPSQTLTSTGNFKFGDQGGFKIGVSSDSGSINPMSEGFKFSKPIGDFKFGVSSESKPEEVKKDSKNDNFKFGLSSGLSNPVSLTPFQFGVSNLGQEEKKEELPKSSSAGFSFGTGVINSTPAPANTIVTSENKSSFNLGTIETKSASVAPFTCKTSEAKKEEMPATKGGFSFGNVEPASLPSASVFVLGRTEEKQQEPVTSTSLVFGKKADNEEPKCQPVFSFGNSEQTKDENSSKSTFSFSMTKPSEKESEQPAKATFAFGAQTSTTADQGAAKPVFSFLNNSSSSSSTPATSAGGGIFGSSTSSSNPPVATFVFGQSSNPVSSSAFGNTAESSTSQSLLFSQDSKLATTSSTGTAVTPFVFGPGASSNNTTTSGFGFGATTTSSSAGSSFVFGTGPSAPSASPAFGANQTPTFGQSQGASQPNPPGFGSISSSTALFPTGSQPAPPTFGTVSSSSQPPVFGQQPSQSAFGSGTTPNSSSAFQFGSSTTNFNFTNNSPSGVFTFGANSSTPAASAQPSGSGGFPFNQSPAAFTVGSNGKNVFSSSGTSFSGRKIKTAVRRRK

Turning to importin beta (from UniProt Q14974), the dissociation constant Kd (as a rule, the free concentration of one partner at which half of the binding sites on the other are occupied at equilibrium, for simple one-to-one binding) is 9 nM.
